pKd: −log10 of the molar value.

The assay has as its target CD4-IgG2 (UniProt P01730). The experiment in a line: BLI.
Turning to “HIV-1 clade B YU2 gp120 glycoprotein, ΔV3 (from UniProt P35961 32-498) (natural protein)”, the pKd was 9.04, the koff was 0.00015 s⁻¹ and the kon worked out at 160000 M⁻¹ s⁻¹.

In the case of “HIV-1 clade B YU2 gp120 extended core (Coree) (domain or fragment)”, the pKd was 9.92, the koff was 5.9e-05 s⁻¹ and the kon was found to be 474000 M⁻¹ s⁻¹.

“HIV-1 clade B YU2 gp120 glycoprotein, ΔV1/V2 (from UniProt P35961 32-498) (natural protein)” showed a pKd of 9.47, a koff of 5.4e-05 s⁻¹ and a kon of 178000 M⁻¹ s⁻¹.

The values above are taken from article PMC5479570.
